Assay results published in patent US20080113421A1, “Stabilizing proteins against denaturation and inactivation by charged detergents using chemical modifications, including modifications that increase net charge” (President and Fellows of Harvard College, priority 2006, published 2008).

Test: Net charge of protein (capillary electrophoresis, charge ladder)
Assay type: physicochemical
Procedure: BCA-Ac18 was synthesized by reacting the lysine residues of BCA with acetic anhydride in 100 mM HEPES buffer, pH 8.2. The N-terminus of BCA was acetylated posttranslationally. The final product contained ˜90% of BCA-Ac18 and 10% of BCA-Ac17, as determined by peak areas in an electropherogram from separation by capillary electrophoresis. The net charge of BCA in Tris-Gly buffer was about −3, and the net charge of BCA-Ac18 was about −19. It is believed that the difference in charge between BCA and BCA-Ac18 was less than 18 full units of charge due to charge regulation-adjustment of protonation states of other ionizable groups on the protein to counteract the increasing electrostatic potential on its surface.
For any charge ladder of BCA, as the number of modifications (n) increases, the total charge on the protein becomes more negative, and the surface of the protein becomes more hydrophobic due to conversion of NH3^+ groups to NHCOR groups. Native BCA has a charge of ˜−2.9 at pH 8. The charge on the early rungs of the ladder increased linearly with the number of acylations; each rung adds an additional charge of ˜−0.9. Therefore, for example, BCA-Ac8 has a charge of ˜−10. The later rungs of the ladder may differ by <0.9 units of charge. Using the Linderstrom-Lang model of cooperativity in proton binding, the charge on BCA-Ac18 was calculated to be −19. The mobility of a given rung of BCA-Acn may have nearly the same mobility as the corresponding rung of BCA-Hexn. Thus, the charges of the BCA-Hexn may be indistinguishable from those of BCA-Acn for a given rung number. (Small deviations in mobility between later rungs of the two ladders may be due either to a change in charge or a change in drag between the two ladders. It can be assumed that any differences in the mobilities are due to additional drag from the hexanoyl groups relative to the acetyl groups.

With bovine carbonic anhydrase II [BCA] the net charge (Tris-Gly buffer) was “about −3” and the charge (pH 8) was roughly −2.9.
